One may read the Km as the substrate concentration at which the rate is half of its maximum. For orientation: kcat means the maximal rate divided by the concentration of active sites. A word on the kcat/Km: it is the second-order rate constant that governs catalysis at low substrate concentration.

Data set [1] relates to T1, CC(=O)N[C@H]1[C@H](Oc2ccc3c(C)cc(=O)oc3c2)O[C@H](CO)[C@@H](O)[C@@H]1O.
T1 construct: recombinant purified enzyme
Description: fluorescence, 4MU release, Michaelis-Menten. The data set is classed as biochemical, Bacteroides thetaiotaomicron.

The test system is the same in data set [2]. Description: fluorescence, 4MU release, Michaelis-Menten. To be noted: unmodified BtGH84_TM (no tethered fragment). The data set is classed as biochemical, Bacteroides thetaiotaomicron. The text has this:
fluorescence, 4MU release, Michaelis-Menten on BtGH84

As for “BtGH84 (Bacteroides thetaiotaomicron VPI-5482; C441S/C675S/Y158F/Y571C)”, in data set [1] (unmodified BtGH84_QM), the Michaelis-Menten constant (Km) came out at 11.215 ± 3.274 mM and the kcat amounted to 77 ± 15 s⁻¹.
On to “BtGH84 (Bacteroides thetaiotaomicron VPI-5482; C441S/C675S/Y571C)”, for which, in data set [2], the Km was 4.68 ± 0.22 mM, the kcat worked out at 127 ± 6 s⁻¹ and the specificity constant (kcat/Km) stood at 27200 ± 2460 M⁻¹ s⁻¹.
As to “BtGH84 (Bacteroides thetaiotaomicron VPI-5482; Y158F)”, in data set [1] (unmodified BtGH84_Y137F), the Michaelis constant (Km) was 6.61 ± 1.282 mM and the kcat came out at 87 ± 4 s⁻¹.
